The assay addresses human claudin18.2 (Claudin 18.2, Genbank NP_001002026) (human). Nature of the assay: cell-based or functional assay.

B1: IMAB-362 (positive control antibody, from WO2016166122) (antibody, human IgG1, kappa, V domains shown)
VH: QVQLQQPGAELVRPGASVKLSCKASGYTFTSYWINWVKQRPGQGLEWIGNIYPSDSYTNYNQKFKDKATLTVDKSSSTAYMQLSSPTSEDSAVYYCTRSWRGNSFDYWGQGTTLTVSS
VL: DIVMTQSPSSLTVTAGEKVTMSCKSSQSLLNSGNQKNYLTWYQQKPGQPPKLLIYWASTRESGVPDRFTGSGSGTDFTLTISSVQAEDLAVYYCQNDYSYPFTFGSGTKLEIKR
Consider B1, for which the “ADCC effect IC50, FcrR3A-V158-NFAT-RE-Jurkat reporter luminescence, NUGC4 cells with high claudin18.2 expression” value came to 0.133 µg/mL; the “ADCC effect IC50, FcrR3A-V158-NFAT-RE-Jurkat reporter luminescence, NUGC4 cells with low claudin18.2 expression” value turned out to be 0.183 µg/mL; the “ADCC effect IC50, FcrR3A-V158-NFAT-RE-Jurkat reporter luminescence, NUGC4 cells with moderate claudin18.2 expression” value was 0.21 µg/mL.

B2: humanized antibody h1901-11 (antibody, human IgG1, kappa, V domains shown)
VH: EVQLVESGGGLVQPGGSLRLSCAASGFTFSDYGIHWVRQAPGKGLEWIAYISRGSSTIYYADTVKGRFTISRDNAKNSLYLQMTSLRAEDTAVYYCARGGYDTRNAMDYWGQGTTVTVSS
VL: DIVMTQSPDSLAVSLGERATISCKSSQSLLNSGNQKNYLAWYQQKPGQPPKLLIYGASTRASGVPDRFSGSGSGTDFTLTISSLQAEDVAIYHCQNDLYYPLTFGQGTKLEIKR
Regarding B2, the “ADCC effect IC50, FcrR3A-V158-NFAT-RE-Jurkat reporter luminescence, NUGC4 cells with high claudin18.2 expression” value worked out at 0.0262 µg/mL; the “ADCC effect IC50, FcrR3A-V158-NFAT-RE-Jurkat reporter luminescence, NUGC4 cells with low claudin18.2 expression” value was found to be 0.0224 µg/mL; the “ADCC effect IC50, FcrR3A-V158-NFAT-RE-Jurkat reporter luminescence, NUGC4 cells with moderate claudin18.2 expression” value worked out at 0.0154 µg/mL.
